From patent US20240254229A1 (Molecular Partners, published 2024)

Tests used:
[1] = target: T1, biotinylated extracellular domain of human CD123 (SEQ ID NO: 88), Fc and Avi tagged (human, UniProt P26951 19-303, biotinylated with BirA-GST (Avi tag)); assay: SPR (ProteOn XPR36), target on GLC chip, DARPin as analyte
T1 construct: also called hCD123
T1 sequence: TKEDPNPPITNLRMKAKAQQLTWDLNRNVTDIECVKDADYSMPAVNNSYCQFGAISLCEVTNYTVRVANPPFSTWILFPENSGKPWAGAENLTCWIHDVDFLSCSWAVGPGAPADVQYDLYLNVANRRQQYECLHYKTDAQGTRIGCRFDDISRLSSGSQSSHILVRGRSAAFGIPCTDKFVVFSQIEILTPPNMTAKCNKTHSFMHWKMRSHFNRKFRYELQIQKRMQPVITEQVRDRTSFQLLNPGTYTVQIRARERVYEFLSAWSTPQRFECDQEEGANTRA

[2] = target: T2, biotinylated extracellular domain of human CD33 (SEQ ID NO: 87), Fc and Avi tagged (human, UniProt P20138 18-259, biotinylated with BirA-GST (Avi tag)); assay: as above
T2 construct: also called hCD33; human target hCD33
T2 sequence (P20138 18-259 R69G): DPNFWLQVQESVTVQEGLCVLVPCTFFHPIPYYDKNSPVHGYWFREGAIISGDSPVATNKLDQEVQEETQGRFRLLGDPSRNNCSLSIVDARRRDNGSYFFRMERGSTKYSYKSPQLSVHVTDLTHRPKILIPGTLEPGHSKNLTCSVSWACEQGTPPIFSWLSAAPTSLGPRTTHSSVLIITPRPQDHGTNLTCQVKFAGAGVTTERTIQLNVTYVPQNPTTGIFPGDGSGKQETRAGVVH

[3] = target: T3, human CD3 on primary human pan-T cells (human, UniProt P07766 23-207; P09693 23-182; P04234 22-171; P20963 22-164); assay: Mirrorball cytometry on primary human pan-T cells, 600 µM HSA
T3 construct: whole, on cells; Native complex on T cells isolated from PBMC; also called CD3 on Pan-T cells
T3 sequence (P07766 23-207, chain 1 of 4): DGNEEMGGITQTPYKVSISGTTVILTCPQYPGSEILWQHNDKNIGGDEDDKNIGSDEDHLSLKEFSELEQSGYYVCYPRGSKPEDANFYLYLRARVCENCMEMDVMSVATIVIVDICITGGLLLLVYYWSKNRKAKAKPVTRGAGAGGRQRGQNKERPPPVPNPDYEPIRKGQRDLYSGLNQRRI
T3 sequence (P09693 23-182, chain 2 of 4): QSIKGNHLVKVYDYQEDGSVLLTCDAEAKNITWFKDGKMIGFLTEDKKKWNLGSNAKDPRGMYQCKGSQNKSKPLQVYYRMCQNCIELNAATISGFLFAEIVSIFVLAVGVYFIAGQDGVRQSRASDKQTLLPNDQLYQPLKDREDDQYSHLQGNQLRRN
T3 sequence (P04234 22-171, chain 3 of 4): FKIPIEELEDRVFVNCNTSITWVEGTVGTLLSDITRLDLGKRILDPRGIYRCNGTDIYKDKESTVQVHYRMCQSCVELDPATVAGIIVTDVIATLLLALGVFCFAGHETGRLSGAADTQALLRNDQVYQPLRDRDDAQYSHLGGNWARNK
T3 sequence (P20963 22-164, chain 4 of 4): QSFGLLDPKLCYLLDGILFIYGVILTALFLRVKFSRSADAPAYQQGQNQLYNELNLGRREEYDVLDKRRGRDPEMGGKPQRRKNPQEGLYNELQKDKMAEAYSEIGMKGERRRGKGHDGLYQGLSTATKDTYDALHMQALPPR
Procedure: The determination of T cell binding was performed with primary human T cells using Mirrorball laser scanning imaging cytometry. Therefore, primary T cells were isolated from human peripheral blood mononuclear cells (PBMCs) using a pan-T cell purification kit (Miltenyi Biotec). A titration of DARPin® protein #27, DARPin® protein #28 and DARPin® protein #29 and DARPin® protein #30 were incubated with 50′000 pan-T cells per well in presence of 600 μM human serum albumin (to mimic physiological serum concentration) for 30 minutes at 4° C. Two benchmark T-cell engagers, AMG330 and flotetuzumab were applied as controls, targeting CD33 or CD123. After washing, CD3 binding was detected by 1:100-diluted anti-penta-His Alexa Fluor 488 antibody (Qiagen). After 30 min incubation at 4° C., cells were washed and resuspended in Cytofix fixation buffer (BD Biosciences) and counterstained by 5 μM DRAQ5 (Abcam) for 15 min at RT. Median of mean fluorescence intensities of Alexa Fluor 488 binding on far-red counterstained cells were measured by Mirrorball using Cellista software (SPT Labtech) and data was plotted using GraphPad Prism 8.

[4] = target: T4, hCD33 and hCD123 immobilized simultaneously on one switchSENSE chip (ratio 2:1, CD33:CD123) (human, UniProt P20138 18-259; P26951 19-305, limits assumed); assay: switchSENSE; KD,2 (avidity, simultaneous binding of CD33 and CD123)
T4 construct: Not a complex: two separate ligands on one surface; used for avidity values and for off-rates; also called both ligands; both targets attached to the surface of the chip
T4 sequence (P20138 18-259 limits assumed, one chain of several): as the sequence (P20138 18-259 R69G) above, with G52R counted along it
Procedure: (§1) The designed ankyrin repeat proteins: DARPin® protein #20, DARPin® protein #21, DARPin® protein #22, DARPin® protein #27, DARPin® protein #40 and DARPin® protein #41 were tested in a concentration of 0.16 and 64 nM (in a buffer PE140 containing 10 mM Na2HPO4/NaH2PO4, 140 mM NaCl, 0.05% Tween20, 50 μM EDTA, 50 μM EGTA) for binding against two ligands hCD33 and hCD123, which both were immobilized simultaneously to DNA nanolevers, on the surface, at a pre-defined ratio (2:1, CD33:CD123) and 10% density (100:50) on an ADP-48-1-0 chip, where 100% density 1000 receptors/μm2 (preincubated R1-B48-CD123 and G1-A48-CD33 (100 nM) diluted in cNL-48 (dark)). Briefly the following steps were performed: [0724] Conjugation. Amine coupling of the two ligands (CD33 and CD123) to the DNA nanolever (A48, B48, respectively) and purification of the conjugates using the proFIRE® solution (Dynamic Biosensors GmbH) at 25° C. [0725] Evaluation of all the combined affinity and avidity of all different proteins to both ligands attached on the surface of an ADP chip using a DRX+ instrument (dynamic BIOSENSORS). [0726] Statistical analysis (repeatability from 2 to 5 times) including regeneration of the chip surface every concentration analyzed and long dissociation times and data were fitted using a bi-exponential global fit.

[5] = target: T5, hCD33 (recombinant, construct not stated) (human, UniProt P20138 18-259, limits assumed); assay: switchSENSE, CD33 and CD123 on one chip; kon to CD33
T5 construct: also called CD33 (Ligand 1)
T5 sequence (P20138 18-259 limits assumed): as the sequence (P20138 18-259 R69G) above, with G52R counted along it
Procedure: as §1

Kd [1]: 19 nM
Kd [2]: 5.7 nM
EC50 [3]: 6.52 nM
Kd [4]: 0.2 to 0.3 nM
kon [5]: ~1e+06 M⁻¹ s⁻¹
B1: DARPin® protein #27 (designed binder)
chain: DLGKKLLEAALEGQLDEVRELLKAGADVNAKDQEGYTPLHLAAALGHLEIVEVLLKAGADVNAKDSIGRTPLHLAAYKGHLEIVEVLLKAGADVNAQDLLGETPADLAAEQGHQDIAEVLQKAAGSPTPTPTTPTPTPTTPTPTPTGSDLGVKLLLAASRGQLDEVRILLKAGADVNAKDIDEGYTPLHIAAYYGHLEIVEVLLKAGADVNAKDRYGKTPLHLAAISGHLEIVEVLLKAGADVNAQDDKGDTPADLAADYGHQDIAEVLQKAAGSPTPTPTTPTPTPTTPTPTPTGSDLGQKLLEAAWAGQDDEVRELLKAGADVNAKNSRGWTPLHTAAQTGHLEIFEVLLKAGADVNAKDDKGVTPLHLAAALGHLEIVEVLLKAGADVNAQDSWGTTPADLAAKYGHEDIAEVLQKAA
notes: CD123-CD33-CD3; also called αCD123-aCD33-αCD3_1; not shown: N-terminal His-tag
